Assay [1] deals with LY6C1 (Ly6c1, C57BL/6J mouse, splice variant 1) (mouse (C57BL/6J)) (UniProt P0CW02). Description: AAV library bound to Ly6c1-transfected HEK293T cells, NGS.
For assay [2], the target named is LY6A (Ly6a, C57BL/6J mouse) (mouse (C57BL/6J)) (UniProt P05533). Kind of assay: AAV library bound to Ly6a-transfected HEK293T cells, NGS.

For 53 substances, fold enrichment (log2) results are on record in patent US20220143214A1.

Sequence of UniProt P05533 (P05533 27-112 limits assumed): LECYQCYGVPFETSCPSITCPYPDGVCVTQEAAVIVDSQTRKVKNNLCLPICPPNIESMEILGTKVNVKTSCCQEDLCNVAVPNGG
Sequence of UniProt P0CW02 (P0CW02 27-109 limits assumed, change not shown): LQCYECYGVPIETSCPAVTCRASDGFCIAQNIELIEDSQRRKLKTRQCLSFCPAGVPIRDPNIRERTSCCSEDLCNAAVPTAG

For AAV9 K449R 7-mer variant WRQGYAS, the fold enrichment (log2) in assay [1] was 2.89 log2; in assay [2], -0.09 log2.

For the substance AAV9 K449R 7-mer variant EIRGYSS, the fold enrichment (log2) stood at 4.92 log2 in assay [1] and 0.75 log2 in assay [2].

With AAV9 K449R 7-mer variant AADRPFL, the fold enrichment (log2) in assay [1] is -3.32 log2; in assay [2], 2.73 log2.

For AAV9 K449R 7-mer variant IRQGYSS, the fold enrichment (log2) was 2.61 log2 in assay [1] and -1.28 log2 in assay [2].

Regarding AAV9 K449R 7-mer variant GSYGYSS, the fold enrichment (log2) in assay [1] is 2.48 log2; in assay [2], -3.32 log2.

Regarding AAV9 K449R 7-mer variant LKTGMSS, the fold enrichment (log2) in assay [1] was 2.74 log2; in assay [2], -0.66 log2.

In the case of AAV9 K449R 7-mer variant VKGGYSS, the fold enrichment (log2) in assay [1] is 3.3 log2; in assay [2], 0.07 log2.

Take AAV9 K449R 7-mer variant LYAGRSS: the fold enrichment (log2) in assay [1] was found to be 4.13 log2; in assay [2], 1.03 log2.

For the substance AAV9 K449R 7-mer variant IDRGYSV, the fold enrichment (log2) in assay [1] was 5.3 log2; in assay [2], -1.04 log2.

AAV9 K449R 7-mer variant MERYGSS: the fold enrichment (log2) is 3.83 log2 in assay [1] and -2.28 log2 in assay [2].

As for AAV9 K449R 7-mer variant NKVGYST, the fold enrichment (log2) in assay [1] was 3.13 log2; in assay [2] it was -3.74 log2.

On to AAV9 K449R 7-mer variant PPSFKNV, for which the fold enrichment (log2) in assay [1] was -4.33 log2; in assay [2], 3.69 log2.

For AAV9 K449R 7-mer variant TGTSPFK, the fold enrichment (log2) in assay [1] was -3.32 log2; in assay [2], 2.22 log2.

In the case of AAV9 K449R 7-mer variant SLSKPFS, the fold enrichment (log2) in assay [1] is -2.08 log2; in assay [2], 2.19 log2.

For AAV9 K449R 7-mer variant HNVFKNP, the values for the fold enrichment (log2) in assay [1] and in assay [2] were 0.33 log2 and 2.09 log2, respectively.

AAV9 K449R 7-mer variant MMAKPFL: the fold enrichment (log2) is -0.49 log2 in assay [1] and 4.53 log2 in assay [2].

For AAV9 K449R 7-mer variant SINKPFV, the fold enrichment (log2) in assay [1] is -0.3 log2; in assay [2] it was 4.74 log2.

As to AAV9 K449R 7-mer variant GKTHGYS, the fold enrichment (log2) in assay [1] was determined as 3.87 log2; in assay [2], 1.65 log2.

On to AAV9 K449R 7-mer variant MNIGYSA, for which the values for the fold enrichment (log2) in assay [1] and in assay [2] were 2.4 log2 and -1.48 log2, respectively.

On to AAV9 K449R 7-mer variant SSTGYSS, for which the fold enrichment (log2) in assay [1] is 4 log2; in assay [2] it was -1.93 log2.

Take AAV9 K449R 7-mer variant VTHGYSS: the figures for the fold enrichment (log2) in assay [1] and in assay [2] were 3.25 log2 and -0.84 log2, respectively.

On to AAV9 K449R 7-mer variant FRIGGSS, for which the fold enrichment (log2) in assay [1] turned out to be 4.89 log2; in assay [2], 1.34 log2.

With AAV9 K449R 7-mer variant DKAWGST, the fold enrichment (log2) in assay [1] is 3.56 log2; in assay [2], 0.19 log2.

Consider AAV9 K449R 7-mer variant TYKSGSS, for which the fold enrichment (log2) in assay [1] turned out to be 3.78 log2; in assay [2] it was 1.95 log2.

Turning to AAV9 K449R 7-mer variant QTLFKNI, the results for the fold enrichment (log2) in assay [1] and in assay [2] were -0.72 log2 and 3.07 log2, respectively.

AAV9 K449R 7-mer variant GNENFSS: the values for the fold enrichment (log2) in assay [1] and in assay [2] were 3.45 log2 and -1.43 log2, respectively.

In the case of AAV9 K449R 7-mer variant GGRGLSS, the fold enrichment (log2) came to 4.9 log2 in assay [1] and 2 log2 in assay [2].

In the case of AAV9 K449R 7-mer variant DVKYGSS, the fold enrichment (log2) in assay [1] is 4.92 log2; in assay [2], -0.36 log2.

As for AAV9 K449R 7-mer variant IATGYSQ, the figures for the fold enrichment (log2) in assay [1] and in assay [2] were 2.18 log2 and -3.74 log2, respectively.

For the substance AAV9 K449R 7-mer variant TEKWTSS, the fold enrichment (log2) worked out at 4.43 log2 in assay [1] and 0.98 log2 in assay [2].

For the substance AAV9 K449R 7-mer variant DRKGYSA, the fold enrichment (log2) in assay [1] is 2.77 log2; in assay [2] it was -0.39 log2.

Consider AAV9 K449R 7-mer variant TKSGYST, for which the fold enrichment (log2) in assay [1] is 5.71 log2; in assay [2], 0.68 log2.

Take AAV9 K449R 7-mer variant NMERPFR: the fold enrichment (log2) in assay [1] stood at 0.95 log2; in assay [2], 2.96 log2.

In the case of AAV9 K449R 7-mer variant RSDFKDI, the fold enrichment (log2) in assay [1] was -2.44 log2; in assay [2], 3.45 log2.

As to AAV9 K449R 7-mer variant VAVFKNV, the fold enrichment (log2) in assay [1] is -0.91 log2; in assay [2] it was 4.23 log2.

With AAV9 K449R 7-mer variant STTFKDI, the fold enrichment (log2) in assay [1] was -3.32 log2; in assay [2], 3.44 log2.

Take AAV9 K449R 7-mer variant TVMAPFK: the figures for the fold enrichment (log2) in assay [1] and in assay [2] were -0.19 log2 and 5.53 log2, respectively.

As to AAV9 K449R 7-mer variant ASSKPFL, the fold enrichment (log2) in assay [1] was found to be 1.19 log2; in assay [2] it was 3.9 log2.

Regarding AAV9 K449R 7-mer variant LKYGTST, the fold enrichment (log2) in assay [1] stood at 4.88 log2; in assay [2], 1.24 log2.

On to AAV9 K449R 7-mer variant FLPGYSS, for which the results for the fold enrichment (log2) in assay [1] and in assay [2] were 2.54 log2 and -2.29 log2, respectively.

Turning to AAV9 K449R 7-mer variant TLAYPFK, the fold enrichment (log2) was -0.72 log2 in assay [1] and 3.93 log2 in assay [2].

Regarding AAV9 K449R 7-mer variant TDTRPFI, the fold enrichment (log2) was -3.32 log2 in assay [1] and 4.19 log2 in assay [2].

Regarding AAV9 K449R 7-mer variant YENRPFV, the fold enrichment (log2) in assay [1] is -3.32 log2; in assay [2] it was 2.23 log2.

In the case of AAV9 K449R 7-mer variant LTKWEST, the values for the fold enrichment (log2) in assay [1] and in assay [2] were 3.91 log2 and 0.82 log2, respectively.

As to AAV9 K449R 7-mer variant ESTRPFK, the fold enrichment (log2) in assay [1] was determined as 0.28 log2; in assay [2] it was 2.87 log2.

As for AAV9 K449R 7-mer variant LRMGASS, the figures for the fold enrichment (log2) in assay [1] and in assay [2] were 4.17 log2 and 0.91 log2, respectively.

In the case of AAV9 K449R 7-mer variant RATGYSS, the fold enrichment (log2) came out at 4.75 log2 in assay [1] and 2.49 log2 in assay [2].

Regarding AAV9 K449R 7-mer variant NDQRPFL, the values for the fold enrichment (log2) in assay [1] and in assay [2] were -4.33 log2 and 3.27 log2, respectively.

For the substance AAV9 K449R 7-mer variant TKYMHSS, the fold enrichment (log2) came to 4.24 log2 in assay [1] and 1.35 log2 in assay [2].

With AAV9 K449R 7-mer variant TRTSGAS, the figures for the fold enrichment (log2) in assay [1] and in assay [2] were 3.85 log2 and 0.43 log2, respectively.

AAV9 K449R 7-mer variant MVRNYST: the fold enrichment (log2) was 3.25 log2 in assay [1] and -0.94 log2 in assay [2].

On to AAV9 K449R 7-mer variant ALAKPFI, for which the fold enrichment (log2) is -0.19 log2 in assay [1] and 1.91 log2 in assay [2].

Turning to AAV9 K449R 7-mer variant VRPGWST, the fold enrichment (log2) in assay [1] amounted to 5.89 log2; in assay [2], 1.02 log2.
